Measurements as given in patent publication US20090304651A1 (published 2009).

How the values were obtained:
[1] = target: T1, recombinant human IGF-II (Insulin-like Growth Factor II) (human, UniProt P01344 25-91, biotinylated (Biotinyl-IGF-II, GroPep) where immobilised in SPR, site not stated; not biotinylated in ITC and as SPR analyte); test: SPR, IGF-II immobilised, steady state
T1 construct: also called IGF2; IGF-2
Method: (§1) Kinetic analysis by Surface Plasmon Resonance (SPR) was conducted on a BIAcore 3000 biosensor (BIAcore, Uppsala, Sweden) at 25° C. in HBS-EP (10 mM HEPES, pH 7.4, 150 mM NaCl, 3 mM EDTA, 0.005% surfactant P20) at a flow rate of 40 μl/min. […] Kinetic experiments consisted of a two minute injection of analyte followed by a 100 s dissociation phase in running buffer, after which the binding surface was regenerated with a 2 minute injection of 2 M MgCl₂. A blank flow cell was used for in-line reference subtraction of changes due to differences in refractive index of running buffer versus sample and a buffer-only injection was used to subtract instrument noise and drift. Injections were performed in duplicate for each concentration and in a randomised order. Kinetic parameters were determined by global fitting of sensorgrams to a two-state (conformational change) binding model using BIAevaluation software version 4.0.1. In all cases the minor component made an insignificant contribution to the overall affinity and as such only the kinetic parameters of the major binding component were used. For each interaction the dissociation affinity constant (KD) was also calculated by fitting of the response of each concentration at equilibrium to a steady-state affinity model using BIAevaluation. In order to investigate the influence of ionic strength, kinetic experiments were conducted in HBS-EP running buffers containing the desired NaCl concentration. In each case, analyte samples were made up in the appropriate running buffer prior to injection.
(§2) Following purification, the binding of each mutant construct to IGF2 was assessed by SPR and compared to the wild type domain 11. Sensorgrams were generated using biotinylated IGF2 immobilised to the cell surface and mutant domain 11 proteins as the free analyte (FIG. 4).

[2] = target: T1, recombinant human IGF-II (Insulin-like …); test: SPR, IGF-II immobilised, kinetic fit
Method: as §1

[3] = target: T1, recombinant human IGF-II (Insulin-like …); test: SPR, IGF-II immobilised, major kinetic parameters
Method: (§3) Kinetic experiments consisted of a two minute injection of analyte followed by a 100 s dissociation phase in running buffer, after which the binding surface was regenerated with a 2 minute injection of 2 M MgCl₂. A blank flow cell was used for in-line reference subtraction of changes due to differences in refractive index of running buffer versus sample and a buffer-only injection was used to subtract instrument noise and drift. Injections were performed in duplicate for each concentration and in a randomised order. Kinetic parameters were determined by global fitting of sensorgrams to a two-state (conformational change) binding model using BIAevaluation software version 4.0.1. In all cases the minor component made an insignificant contribution to the overall affinity and as such only the kinetic parameters of the major binding component were used. For each interaction the dissociation affinity constant (KD) was also calculated by fitting of the response of each concentration at equilibrium to a steady-state affinity model using BIAevaluation. […]
(§4) The affinity of versions of Fc-tagged domain 11 fusion proteins, and domain 11 constructs, for IGF-II were compared using surface plasmon resonance (BIAcore 3000). […] The Fc-tagged domain 11 kinetic data performed in triplicate generated sensorgrams that were analyzed using a bivalent analyte model.

[4] = target: T1, recombinant human IGF-II (Insulin-like …); test: SPR, IGF-II immobilised, kinetic fit; remark: listed apart in the source
Method: as §1, §2

[5] = target: T1, recombinant human IGF-II (Insulin-like …); test: SPR, IGF-II immobilised, major kinetic parameter kd1
Method: as §3, §4

[6] = target: T1, recombinant human IGF-II (Insulin-like …); test: SPR, IGF-II immobilised, steady state; remark: listed apart in the source
Method: as §1, with “In order to investigate the influence of ionic strength, kinetic experiments were conducted in HBS-EP running buffers containing the desired NaCl concentration. In each case, analyte samples were made up in the appropriate running buffer prior to injection.” left out

[7] = target: T1, recombinant human IGF-II (Insulin-like …); test: SPR, IGF-II immobilised, major kinetic parameter ka1
Method: as §3, §4

[8] = target: T1, recombinant human IGF-II (Insulin-like …); test: SPR, steady-state KD relative to wild type
Method: […]. Values are the mean±S.E.M. of three separate experiments.
as §1
Following purification, the binding of each mutant construct to IGF2 was assessed by SPR and compared to the wild type domain 11.

[9] = target: T1, recombinant human IGF-II (Insulin-like …); test: SPR

T1 sequence (P01344 25-91 limits assumed): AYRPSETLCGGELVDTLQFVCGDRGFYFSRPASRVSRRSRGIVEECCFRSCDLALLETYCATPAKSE

B1: wild type IGF2R domain 11 (amino acids 1511-1650) with C-terminal His6 tag, from Pichia pastoris (receptor)
chain: NEHDDCQVTNPSTGHLFDLSSLSGRAGFTAAYSEKGLVYMSICGENENCPPGVGACFGQTRISVGKANKRLRYVDQVLQLVYKDGSPCPSKSGLSYKSVISFVCRPEAGPTNRPMLISLDKQTCTLFFSWHTPLACEQATHHHHHH
notes: also called WT; wild type domain 11
For B1, the Kd [1] was 103 nM, the Kd [2] was 102 nM and the koff [2] was 0.053 s⁻¹. For the same binder, the kon [2] was 525000 M⁻¹ s⁻¹, the Kd [3] was 119 nM and the Kd [4] was 102 nM. The koff [4] was 0.053 s⁻¹, the kon [4] was 525000 M⁻¹ s⁻¹ and the koff [5] was 0.0787 s⁻¹. The Kd [6] was 103 nM, the kon [7] was 662000 M⁻¹ s⁻¹ and the “Relative Affinity” value [8] was 1 fold (wild type = 1.00).

B2: IGF2R domain 11 E1544A (amino acids 1511-1650, C-terminal His6 tag, from Pichia pastoris) (receptor)
chain: NEHDDCQVTNPSTGHLFDLSSLSGRAGFTAAYSAKGLVYMSICGENENCPPGVGACFGQTRISVGKANKRLRYVDQVLQLVYKDGSPCPSKSGLSYKSVISFVCRPEAGPTNRPMLISLDKQTCTLFFSWHTPLACEQATHHHHHH
B2 showed a Kd [1] of 37 nM, a Kd [4] of 36 nM and a koff [4] of 0.033 s⁻¹. The kon [4] was 934000 M⁻¹ s⁻¹, the “relative affinity increase over wild type” value [9] was ~2.5 fold and the “Relative Affinity” value [8] was 2.79 fold (wild type = 1.00).

B3: IGF2R domain 11 E1544K (amino acids 1511-1650, C-terminal His6 tag, from Pichia pastoris) (receptor)
chain: NEHDDCQVTNPSTGHLFDLSSLSGRAGFTAAYSKKGLVYMSICGENENCPPGVGACFGQTRISVGKANKRLRYVDQVLQLVYKDGSPCPSKSGLSYKSVISFVCRPEAGPTNRPMLISLDKQTCTLFFSWHTPLACEQATHHHHHH
notes: also called enhanced mutant
For B3, the Kd [3] was 20.5 nM, the koff [5] was 0.0406 s⁻¹ and the kon [7] was 2.02e+06 M⁻¹ s⁻¹.
